± gives the standard deviation.

The nature of the data set: protein stability index of a GFP-peptide fusion (GPS, HEK-293T) (PSI 1-6); higher = more stable.
[1] abbreviates: treatment: DMSO, c terminus: a fixed tail appended.
Where [2] appears, read: treatment: MLN4924 1 uM, 8 h, c terminus: a fixed tail appended.
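Also: 24-mer peptide tiles fused after GFP, lentivirally expressed, FACS-sorted into six equal bins by GFP/DsRed ratio, decoded by Illumina sequencing, PSI is the read-weighted mean bin number.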

Turning to ENRVSTLRVSPDGTAFCSGSWDHT [GNB5], the protein stability index reads like this: under setting [1], 3.95 ± 0.14; under setting [2], 3.9 ± 0.19.
For the sequence MPEFSSDSTMRILSNLVQHILKKY [RTP4], the protein stability index is, setting by setting: under setting [1], 2.2 ± 0.39; under setting [2], 2.52 ± 0.31.
For SEMWDIFLVRLLMAMAVMLYYSNF [MFSD9] the same measures were 3.25 ± 0.38 and 3.36 ± 0.33.
Consider SWARPRPDEERPLRRPRPVQRTQS [RASAL3], for which the protein stability index was 4.46 ± 0.36 under setting [1] and 4.57 ± 0.26 under setting [2].
On to DPDGKKIKQIQQLFEEILSNSRQL [FBXO33], for which the protein stability index reads like this: under setting [1], 2.54 ± 0.41; under setting [2], 2.77 ± 0.24.
In the case of KILRSMSRKVTTNKLLLSIIILLE [VTI1B], the protein stability index is, setting by setting: under setting [1], 2.48 ± 0.53; under setting [2], 2.32 ± 0.42.
VAWCYYSVSLRKAERLRAELLDLK [MYORG]: the protein stability index under setting [1] was 2.35 ± 0.42 and the protein stability index under setting [2] was 2.15 ± 0.47.
For EVCYEDLGCFSDTEPWGGTAIRPL [PNLIPRP1] the same measures were 3.18 ± 0.19 and 3.54 ± 0.66.
For the sequence GENSDCHRDSSQAIPITELTKSQV [ZNF8], the protein stability index by setting is: under setting [1], 4.94 ± 0.12; under setting [2], 5.29 ± 0.23.
As for YRLGYFDDALEDFKKVLDLNPGFQ [TTC32], the protein stability index was 2.59 ± 0.2 under setting [1] and 2.41 ± 0.41 under setting [2].
YYLCGFCPAELFTNTRSDLDVFGR [LUC7L3]: the protein stability index is, setting by setting: under setting [1], 2.26 ± 0.25; under setting [2], 2.04 ± 0.21.
With AAQPMQPLPESLASLHPSVSPGSP [PLAGL1], the protein stability index under setting [1] is 5.2 ± 0.12 and the protein stability index under setting [2] is 5.17 ± 0.29.
For the sequence STLKEVKPTVFIGVPQIWEKIHEM [ACSBG2], the protein stability index by setting is: under setting [1], 2.1 ± 0.24; under setting [2], 2.27 ± 0.31.
The sequence LKNSNYESIQQTARSIAEQAHELA [PPTC7] gave a protein stability index under setting [1] of 3.91 ± 0.54 and a protein stability index under setting [2] of 3.78 ± 0.26.
For NSNTPVDDFHTNDVCSFPNALVTK [FEM1B] the same measures were 4.68 ± 0.26 and 4.5 ± 0.18.
DDPATLGPHLGLRGVPQSTAASS [DYRK1B] showed a protein stability index (treatment: DMSO, c terminus: native) of 3.28 ± 0.28 and a protein stability index (treatment: MLN4924 1 uM, 8 h, c terminus: native) of 3.29 ± 0.085.
As for FAHHSLFLHVRKATRAMGLLNTLS [TMEM175], the protein stability index came to 2.6 ± 0.78 under setting [1] and 2.18 ± 0.23 under setting [2].
NSAMPFKILYDDGKMVEEVDGRAT [PTPRD]: the protein stability index by setting is: under setting [1], 4.69 ± 0.32; under setting [2], 4.62 ± 0.13.
The like results for QSTDGARGKRGYSRGLHAWEISWP [SPSB2] were, in that order, 2.9 ± 0.14 and 2.75 ± 0.39.
For the sequence PCCSSSPEEPLNGESYESCCPTSR [FEM1A], the protein stability index is 4.28 ± 0.22 under setting [1] and 4.64 ± 0.31 under setting [2].
In turn, AQRHRELYLRVELSDVQNPAISIT [HACD3] showed a protein stability index under setting [1] of 2.16 ± 0.34 and a protein stability index under setting [2] of 2.18 ± 0.15.
In turn, EQWDRLLVLYPTSLAIFSEELDGL [PLEKHN1] gave a protein stability index under setting [1] of 2.37 ± 0.3 and a protein stability index under setting [2] of 2.44 ± 0.43.
VISQLEQGTELWVAERGTTQGCHP [ZNF8]: the protein stability index turned out to be 3.96 ± 0.29 under setting [1] and 3.99 ± 0.45 under setting [2].
For LESVNHCHLNGIVHRDLKPENLLL [CAMK2D] the same measures were 2.85 ± 0.34 and 2.98 ± 0.41.
For the sequence KMAAFHGAGLKRYLLTVMAAAAKA [ADAMTS4], the protein stability index is, setting by setting: under setting [1], 2.43 ± 0.21; under setting [2], 2.58 ± 0.5.
NQHGIILKYIGMAKREINKLLKQK [ARL6IP1]: the protein stability index by setting is: under setting [1], 1.93 ± 0.39; under setting [2], 2.16 ± 0.32.
GQGGKLWDPSVQSCKEGLSPRGPA [ZNF263]: the protein stability index is 3.9 ± 0.12 under setting [1] and 4.08 ± 0.16 under setting [2].
On to EDSIFGDPKKLLTQYFVQENYLEY [MAGEA6], for which the protein stability index was 2.88 ± 0.34 under setting [1] and 2.62 ± 0.11 under setting [2].
Take MSASLNYKSFSKEQQTMDNLEKQL [TRIM55]: the protein stability index was 4.71 ± 0.23 under setting [1] and 4.47 ± 0.14 under setting [2].
Consider PLRAVHINLEEKEKQIRSFLIEGP [PLEKHN1], for which the protein stability index by setting is: under setting [1], 3.7 ± 0.31; under setting [2], 3.8 ± 0.2.
For GLALGGGLELALACDIRVAASSAK [AUH] the same measures were 2.67 ± 0.4 and 2.9 ± 0.23.
Regarding LMGPSRMSLFSLYMVQDQHECILP [M1AP], the protein stability index under setting [1] stood at 2.58 ± 0.3 and the protein stability index under setting [2] is 2.33 ± 0.24.
Regarding NGWTCLHWACKRNHGQVVSYLLKS [ANKRD40], the protein stability index is, setting by setting: under setting [1], 2.72 ± 0.46; under setting [2], 2.29 ± 0.43.
Sequence VRRGLAGATTLGDMIYVSGGFDGS [KLHL12] came in with a protein stability index under setting [1] of 2.94 ± 0.56 and a protein stability index under setting [2] of 2.87 ± 0.15.
The like results for LLKHSNIVRLHDSISEEGFHYLVF [CAMK2B] were, in that order, 2.68 ± 0.46 and 2.42 ± 0.37.
The sequence AQFRLLSEVEELNMSLTALREKLL [TEKT4] yielded a protein stability index under setting [1] of 2.23 ± 0.43 and a protein stability index under setting [2] of 2.62 ± 0.45.
For PAGERRIYRHRIPSTICFGQGAAR [ZNF511], the protein stability index by setting is: under setting [1], 2.89 ± 0.5; under setting [2], 3.22 ± 0.45.
In turn, EKDRIKSFTTNEKAILEQNFRDLV [TRIM29] came in with a protein stability index under setting [1] of 3.53 ± 0.27 and a protein stability index under setting [2] of 3.82 ± 0.43.
The like results for SERPLDFLDLERPPTTPQNEEIRA [MFF] were, in that order, 5.29 ± 0.39 and 5.55 ± 0.15.
With HADILAAVETRLSLLNMTFMKYVD [FBXO28], the protein stability index was determined as 2.84 ± 0.69 under setting [1] and 2.75 ± 0.65 under setting [2].
With LFVNSHPGIDRPGMLCSFRIPGAW [DCAF4], the protein stability index under setting [1] came to 2.38 ± 0.59 and the protein stability index under setting [2] amounted to 2.24 ± 0.43.
The like results for FKWYLENVYPEMRVYNNTLTYGEV [GALNT9] were, in that order, 2.38 ± 0.48 and 2.43 ± 0.35.
The like results for NIRPADSRWVRDPRYREDPCKQCK [FBXO34] were, in that order, 4.13 ± 0.36 and 4.28 ± 0.13.
For GKTPVCHQCHKVIRGRYLVALGHA [PDLIM7] the same measures were 2.1 ± 0.1 and 2.72 ± 0.33.
Turning to LIDEKVLILHGGVSDITDLELLDK [PPEF2], the protein stability index reads like this: under setting [1], 3.14 ± 1.5; under setting [2], 3.71 ± 0.55.
As to FLSYYRLTRFLSRVIKCDPDCLRA [CCND1], the protein stability index came to 2.23 ± 0.56 under setting [1] and 2.25 ± 0.54 under setting [2].
The like results for DPYLSYRWKRRRSYSREHEGRLRY [CLK3] were, in that order, 3.54 ± 0.33 and 3.57 ± 0.56.
For HFKPHGFSSDKAKAGSSEWLAVDG [ATF4], the protein stability index amounted to 3.89 ± 0.18 under setting [1] and 3.91 ± 0.17 under setting [2].
With LFLLLGHGASPGLRDGGGLTPLEL [ANKRD9], the protein stability index was determined as 2.29 ± 0.32 under setting [1] and 2.36 ± 0.59 under setting [2].
Sequence SRLGQGIGPIHLNEIQCTGNEKSI [LOXL2] displayed a protein stability index under setting [1] of 4.42 ± 0.32 and a protein stability index under setting [2] of 4.09 ± 0.18.
For the sequence YNMAPSALDSADLPPPSALKKGSK [NFE2L1], the protein stability index reads like this: under setting [1], 5.26 ± 0.16; under setting [2], 5.13 ± 0.3.
On to DHSEHLSGSSYRDALQRYGTSHGA [RBMY1A1], for which the protein stability index reads like this: under setting [1], 3.89 ± 0.12; under setting [2], 4.37 ± 0.38.
For the sequence VSVNAQTLDGRTPLHLAAQRGHYR [RIPK4], the protein stability index runs as follows: under setting [1], 3.76 ± 0.29; under setting [2], 3.77 ± 0.58.
In turn, DINNNFPDLNTLLWEAEDRQNVPR [CPXM2] gave a protein stability index under setting [1] of 3.78 ± 0.35 and a protein stability index under setting [2] of 4.15 ± 0.2.
In turn, VDSAEYSCLKAIVLFTSDACGLSD [NR2F2] displayed a protein stability index under setting [1] of 2.23 ± 0.38 and a protein stability index under setting [2] of 2.25 ± 0.31.
Consider SAPPTSRTSSGNVWVTHEEMETLE [PPFIA4], for which the protein stability index was determined as 5.12 ± 0.29 under setting [1] and 4.88 ± 0.39 under setting [2].
Take GWRSLWLGWGPTALRDVPFSALYW [SLC25A39]: the protein stability index runs as follows: under setting [1], 2.22 ± 0.41; under setting [2], 2.99 ± 0.76.
Take FVGAGRMAGAIAQGLIRAGKVEAQ [PYCR3]: the protein stability index by setting is: under setting [1], 2.96 ± 0.52; under setting [2], 2.9 ± 0.33.
For GAAAQGQTQTVAAQAQALAAQAAA [PI4K2A] the same measures were 5.07 ± 0.21 and 4.95 ± 0.21.
In the case of RLKFPIDYPYSPPAFRFLTKMWHP [CDC34], the protein stability index is, setting by setting: under setting [1], 2.49 ± 0.48; under setting [2], 2.09 ± 0.15.
Consider GDIIRLEHKETSRNLHSHYHEAPM [POMT2], for which the protein stability index stood at 3.35 ± 0.13 under setting [1] and 3.57 ± 0.12 under setting [2].
For the sequence HENETLASLKSEAESLKGKLEEER [GNB5], the protein stability index stood at 5.29 ± 0.33 under setting [1] and 5.34 ± 0.33 under setting [2].
The like results for RSREARSRLLLLEQELKTVTYSLL [SMAD6] were, in that order, 2.61 ± 0.36 and 2.5 ± 0.33.
For CMAFELATGDYLFEPHSGEDYSRD [SRPK2] the same measures were 3.87 ± 0.47 and 4.12 ± 0.25.
For RVLNSAKEKSSTVPIPTVNQYLYF [SOAT1] the same measures were 2.29 ± 0.14 and 2.47 ± 0.16.
In the case of HMEDPRRAGKMLMTLPLLRQTSTK [ESRRG], the protein stability index under setting [1] was found to be 3.63 ± 0.16 and the protein stability index under setting [2] worked out at 3.7 ± 0.28.
In the case of QYIAQFTSQFLSLQCLQALYVDSL [PRAME], the protein stability index was found to be 3.237 ± 0.011 under setting [1] and 3.47 ± 0.23 under setting [2].
The like results for RLYVDKSLNLSTEFISSTKRPYAK [SERPINB5] were, in that order, 3.41 ± 0.76 and 3.46 ± 0.5.
The like results for KAFGVGVAYRSLGRFEQLGKTAAS [FSD1] were, in that order, 2.77 ± 0.3 and 2.69 ± 0.24.
For NKTWREQYLRLPDAPEQRLRVMTT [ELOA2], the protein stability index by setting is: under setting [1], 3.26 ± 0.31; under setting [2], 3.19 ± 0.48.
Take ARIAIRGTIKKIIHQETVSKNGNG [PCMTD2]: the protein stability index stood at 3.01 ± 0.22 under setting [1] and 3.21 ± 0.27 under setting [2].
The like results for SCSQSHCCSRYLCMGAMSLFLPCL [SPRY1] were, in that order, 2.52 ± 0.44 and 2.5 ± 0.4.
